Values belong to the molecule of their own block, whether it stands above or below them. Bridges are numbered along the chain shown (N, C = ends). Where no end group is shown, it is not given here. [ ]: non-standard residue; d: D form. The star is where a group is joined. FITC = O=C1OC2(c3ccc(O)cc3Oc3cc(O)ccc32)c2ccc(NC(=S)*)cc21; S5 = C=CCCC[C@](C)(N)C(=O)O; Nle = CCCC[C@H](N)C(=O)O
How the values were obtained:
recombinant BFL-1/A1ΔC [1] = target: recombinant BFL-1/A1ΔC (UniProt Q16548); experiment: fluorescence polarization (FPA), FITC-SAHB with recombinant anti-apoptotic protein [lower table]
recombinant BCL-wΔC [2] = target: recombinant BCL-wΔC (UniProt Q92843); experiment: as above
recombinant BFL-1/A1ΔC [3] = target: recombinant BFL-1/A1ΔC (UniProt Q16548); experiment: fluorescence polarization (FPA), FITC-SAHB with recombinant protein; axis Concentration [log(pM)] [left panel]
[4] = target: recombinant human MCL-1ΔNΔC (amino acids 172-320) (human) (UniProt Q07820); experiment: fluorescence polarization (FPA), FITC-NOXA SAHBB, dilution series of the protein [left graph]
[5] = target: recombinant human MCL-1ΔNΔC (amino acids 172-320) (human) (UniProt Q07820); experiment: fluorescence polarization (FPA), FITC-SAHB with recombinant anti-apoptotic protein [upper table]
recombinant BCL-XLΔC [6] = target: recombinant BCL-XLΔC (UniProt Q07817); experiment: as above
recombinant BFL-1/A1ΔC [7] = target: recombinant BFL-1/A1ΔC (UniProt Q16548); experiment: as above
recombinant BCL-wΔC [8] = target: recombinant BCL-wΔC (UniProt Q92843); experiment: as above
[9] = target: recombinant human MCL-1ΔNΔC (amino acids 172-320) (human) (UniProt Q07820); experiment: fluorescence polarization (FPA), FITC-SAHB with recombinant anti-apoptotic protein [lower table]
recombinant BCL-XLΔC [10] = target: recombinant BCL-XLΔC (UniProt Q07817); experiment: as above
[11] = target: recombinant human MCL-1ΔNΔC (amino acids 172-320) (human) (UniProt Q07820); experiment: FPA, FITC-SAHB against MCL-1ΔNΔC
[12] = target: recombinant human MCL-1ΔNΔC (amino acids 172-320) (human) (UniProt Q07820); experiment: fluorescence polarization (FPA), FITC-SAHB, dilution series of MCL-1ΔNΔC [top panel]
[13] = target: T1, recombinant human MCL-1ΔNΔC (amino acids 172-320) (human, UniProt Q07820 172-320); experiment: fluorescence polarization (FPA), FITC-SAHB, dilution series of MCL-1ΔNΔC [middle panel]
T1 construct: also called rMCL-1; MCL-1NC
Protocol: (§1) For direct binding experiments, dissociation constants (KD) were calculated by nonlinear regression analysis of dose-response curves using Prism software (Graphpad). For competition experiments, Ki values were determined by nonlinear regression analysis of dose-response curves using a one-site competition model.
(§2) To measure the binding activity of SAHBs for MCL-1, fluorescence polarization binding assays were performed (FIG. 8). To generate a stable MCL-1 protein suitable for such binding studies (i.e., the published full-length and carboxy-terminus deleted forms of recombinant MCL-1 degrade rapidly, rendering it difficult to maintain a homogenous solution of pure MCL-1 protein), a recombinant form of MCL-1 (rMCL-1) was produced that lacked its amino- and carboxy-terminus, “MCL-1ΔNΔC”, but retained the critical BCL-2 homology domains and adjoining protein sequences that give rise to the BH3-binding cleft (SEQ ID NO: 72). The pGEX-4T vector was used to produce the GST-fusion protein of MCL-1ΔNΔC and purification was achieved by glutathione sepharose chromatography, affinity tag cleavage with thrombin at room temperature overnight, followed by size exclusion chromatography. Serial dilutions of MCL-1ΔNΔC in 50 mM Tris pH 8, 150 mM NaCl were incubated with a fixed concentration of FITC-derivatized SAHB (10-50 nM) until equilibrium was reached. Fluorescence polarization was measured on a BMG POLARstar Optima or Spectramax and dissociation constants determined by nonlinear regression analysis using Prism software 4.0 (Graphpad) (FIG. 8).

[14] = target: T1, recombinant human MCL-1ΔNΔC (amino …); experiment: FPA, FITC-SAHB against MCL-1ΔNΔC
Protocol: as §1
The native alpha-helical structure of BH3 domains was reinforced by incorporating non-natural amino acids containing olefin tethers at the (i, i+4) positions of the non-interacting face, followed by ruthenium catalyzed olefin metathesis to yield a panel of stapled BH3 domains (FIG. 7).

[15] = target: T1, recombinant human MCL-1ΔNΔC (amino …); experiment: fluorescence polarization (FPA), FITC-SAHB with recombinant anti-apoptotic protein [upper table]
Protocol: as §1
(§3) To measure the binding activity of SAHBs for MCL-1, fluorescence polarization binding assays were performed (FIG. 8). To generate a stable MCL-1 protein suitable for such binding studies (i.e., the published full-length and carboxy-terminus deleted forms of recombinant MCL-1 degrade rapidly, rendering it difficult to maintain a homogenous solution of pure MCL-1 protein), a recombinant form of MCL-1 (rMCL-1) was produced that lacked its amino- and carboxy-terminus, “MCL-1ΔNΔC”, but retained the critical BCL-2 homology domains and adjoining protein sequences that give rise to the BH3-binding cleft (SEQ ID NO: 72). The pGEX-4T vector was used to produce the GST-fusion protein of MCL-1ΔNΔC and purification was achieved by glutathione sepharose chromatography, affinity tag cleavage with thrombin at room temperature overnight, followed by size exclusion chromatography. […] Fluorescence polarization was measured on a BMG POLARstar Optima or Spectramax and dissociation constants determined by nonlinear regression analysis using Prism software 4.0 (Graphpad) (FIG. 8).

[16] = target: T1, recombinant human MCL-1ΔNΔC (amino …); experiment: fluorescence polarization (FPA), FITC-SAHB with recombinant protein; axis Concentration [log(pM)] [right panel]
[17] = target: T1, recombinant human MCL-1ΔNΔC (amino …); experiment: competition FPA: dilution series of acetylated MCL-1 SAHB against FITC-BAK SAHB on MCL-1ΔNΔC
Protocol: (§4) Briefly, FITC-SAHB (50 nM) was added to serial dilutions of FPLC-purified recombinant protein in binding buffer (50 mM Tris, 100 mM NaCl, pH 8.0). […] Multiwell plates were incubated in the dark at room temperature until equilibrium was reached and fluorescence polarization (mP units) was measured by microplate reader (SpectraMax, Molecular Devices). For direct binding experiments, dissociation constants (KD) were calculated by nonlinear regression analysis of dose-response curves using Prism software (Graphpad). For competition experiments, Ki values were determined by nonlinear regression analysis of dose-response curves using a one-site competition model.
(§5) FP (mP units) was measured at equilibrium by microplate reader (e.g., Spectramax) and Kᵢ values calculated by nonlinear regression analysis of dose-response curves using Prism software (Graphpad).

[18] = target: T1, recombinant human MCL-1ΔNΔC (amino …); experiment: FPA
Protocol: as §1
The alanine scan was supplemented with glutamate mutagenesis of alanine and glycine residues.

[19] = target: T1, recombinant human MCL-1ΔNΔC (amino …); experiment: fluorescence polarization (FPA), FITC-SAHB with recombinant anti-apoptotic protein [lower table]
Protocol: as §1, §2

[20] = target: T1, recombinant human MCL-1ΔNΔC (amino …); experiment: competition FPA, FITC-BAK SAHB and MCL-1ΔNΔC with MCL-1 SAHBs as competitors
Protocol: as §4, §5

[21] = target: T1, recombinant human MCL-1ΔNΔC (amino …); experiment: fluorescence polarization (FPA), FITC-SAHB, dilution series of MCL-1ΔNΔC [top panel]
Protocol: as §1, §3

Sequence of recombinant BCL-XLΔC (Q07817 1-212, stated change not applied): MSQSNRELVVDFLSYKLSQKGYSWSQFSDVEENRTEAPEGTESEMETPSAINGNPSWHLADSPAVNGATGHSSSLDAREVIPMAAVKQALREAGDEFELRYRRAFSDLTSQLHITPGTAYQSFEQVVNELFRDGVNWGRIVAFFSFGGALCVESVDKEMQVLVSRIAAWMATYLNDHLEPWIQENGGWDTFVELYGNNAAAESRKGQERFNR
Sequence of recombinant BFL-1/A1ΔC (Q16548 1-153, stated change not applied): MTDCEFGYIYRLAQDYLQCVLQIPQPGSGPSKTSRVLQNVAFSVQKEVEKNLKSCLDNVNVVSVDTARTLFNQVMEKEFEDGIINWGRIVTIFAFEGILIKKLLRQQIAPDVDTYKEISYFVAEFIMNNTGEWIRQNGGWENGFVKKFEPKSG
T1 sequence (Q07820 172-320 limits assumed, stated change not applied): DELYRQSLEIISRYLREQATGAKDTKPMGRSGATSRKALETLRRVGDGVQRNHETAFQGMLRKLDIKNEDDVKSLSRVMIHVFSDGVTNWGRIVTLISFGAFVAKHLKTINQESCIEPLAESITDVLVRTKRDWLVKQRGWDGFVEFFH
Sequence of recombinant human MCL-1ΔNΔC (amino acids 172-320) (human) (Q07820 172-320 limits assumed, stated change not applied): as above
Sequence of recombinant BCL-wΔC (Q92843 1-164, stated change not applied): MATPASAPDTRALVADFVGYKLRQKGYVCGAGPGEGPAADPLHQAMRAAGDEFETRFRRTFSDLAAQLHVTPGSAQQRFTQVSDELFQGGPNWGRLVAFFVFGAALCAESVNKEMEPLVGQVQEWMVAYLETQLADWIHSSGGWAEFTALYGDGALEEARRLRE

Molecule: NOXA SAHBB (from UniProt Q13794 19-43) (peptide)
- Kd [4]: 110 nM
- Kd [5]: 109 nM
- Kd (recombinant BCL-XLΔC [6]): > 1000 nM
- Kd (recombinant BFL-1/A1ΔC [7]): > 1000 nM
- Kd (recombinant BCL-wΔC [8]): > 1000 nM

B1: MCL-1 SAHBA (stapled MCL-1 BH3 helix, parental) (peptide)
peptide: KALETLR[S5]VGD[S5]VQRNHETAF
modifications: staple 8-12; also: N-terminal FITC or acetyl depending on assay
notes: domain: BH3; also called FITC-MCL-1 SAHBA
- Kd [14]: < 50 nM
- Ki [17]: 3100 nM

B3: BAK SAHB (peptide)
peptide: {FITC}-QVGRQLA[S5]IGD[S5]INRRYD
modifications: staple 8-12
notes: also called FITC-BAK SAHB; BAK BH3 helix
- Kd (recombinant BCL-XLΔC [10]): 15 nM
- Kd (recombinant BFL-1/A1ΔC [1]): 92 nM
- Kd (recombinant BCL-wΔC [2]): 17 nM
- Kd [13]: 7 nM
- Kd [14]: < 50 nM
- Kd [19]: 7 nM
- IC50 [20]: 270 nM

Molecule: {FITC}-QWAREIGAQLR[S5][Nle]AD[S5]LNAQY (staple 12-16, domain: BH3) [PUMA SAHB]
- Kd (recombinant BCL-XLΔC [10]): 9 nM
- Kd (recombinant BFL-1/A1ΔC [1]): 34 nM
- Kd (recombinant BCL-wΔC [2]): 18 nM
- Kd [21]: 14 nM
- Kd [14]: < 50 nM
- Kd [19]: 14 nM

Molecule: {FITC}-ASTKKLSESLK[S5]IGD[S5]LDSN (staple 12-16, domain: BH3) [BAX SAHB]
- Kd (recombinant BCL-XLΔC [10]): 15 nM
- Kd (recombinant BFL-1/A1ΔC [1]): 28 nM
- Kd (recombinant BCL-wΔC [2]): 24 nM
- Kd [13]: 101 nM
- Kd [14]: < 50 nM
- Kd [19]: 101 nM

Second part, the molecule after the results:

- Kd (recombinant BFL-1/A1ΔC [1]): 18 nM
- Kd (recombinant BCL-wΔC [2]): 2 nM
- EC50 (read off the curve) (recombinant BFL-1/A1ΔC [3]): 50 nM
Molecule: BIM SAHB (BIM SAHBA) (peptide)

- Kd [9]: 22 nM
- Kd (recombinant BCL-XLΔC [10]): > 1000 nM
- Kd (recombinant BFL-1/A1ΔC [1]): 416 nM
- Kd (recombinant BCL-wΔC [2]): > 1000 nM
- Kd [11]: < 50 nM
- Kd [12]: 22 nM
Molecule: NOXA SAHBA (stapled NOXA BH3 helix) (from UniProt Q13794) (peptide)

- Kd [13]: 115 nM
- Kd [14]: < 50 nM
- Kd [15]: 115 nM
- Kd (recombinant BCL-XLΔC [6]): 316 nM
- Kd (recombinant BFL-1/A1ΔC [7]): > 1000 nM
- Kd (recombinant BCL-wΔC [8]): 416 nM
Molecule: {FITC}-RLAEVSAVLL[S5]LGD[S5]LE[Nle]IR (staple 11-15) [BOK SAHB]

- EC50 (read off the curve) [16]: ~10 nM
Molecule: {FITC}-IWI[S5]QEL[S5]RFGDKFNAYYAR (staple 4-8) [BIM SAHBD with Ile65 to Phe and Glu68 to Lys (MCL-1-specificity tailored BIM SAHB)]

- Kd [18]: 191 nM
B2: MCL-1 SAHBA V220F (peptide, UniProt Q07820 208-228, looked up)
peptide: {FITC}-KALETLR[S5]VGD[S5]FQRNHETAF
modifications: staple 8-12
notes: domain: BH3; also called V220F point mutation in MCL-1 SAHB

- Kd (recombinant BCL-XLΔC [10]): 28 nM
- Kd (recombinant BFL-1/A1ΔC [1]): 95 nM
- Kd (recombinant BCL-wΔC [2]): 54 nM
- Kd [21]: 50 nM
- Kd [14]: < 50 nM
- Kd [19]: 50 nM
Molecule: {FITC}-DIIRNIARHLA[S5]VGD[S5][Nle]DRSIRR (staple 12-16, domain: BH3) [BID SAHB]

— patent US20120172285A1 (Dana-Farber, published 2012)
